Results from PMC2756145.

Assays:
Assay in all cases: filter binding
[1] = molecular target: T1, Pot1-DBD_V97A (Schizosaccharomyces pombe, UniProt O13988 1-389, V97A)
T1 sequence: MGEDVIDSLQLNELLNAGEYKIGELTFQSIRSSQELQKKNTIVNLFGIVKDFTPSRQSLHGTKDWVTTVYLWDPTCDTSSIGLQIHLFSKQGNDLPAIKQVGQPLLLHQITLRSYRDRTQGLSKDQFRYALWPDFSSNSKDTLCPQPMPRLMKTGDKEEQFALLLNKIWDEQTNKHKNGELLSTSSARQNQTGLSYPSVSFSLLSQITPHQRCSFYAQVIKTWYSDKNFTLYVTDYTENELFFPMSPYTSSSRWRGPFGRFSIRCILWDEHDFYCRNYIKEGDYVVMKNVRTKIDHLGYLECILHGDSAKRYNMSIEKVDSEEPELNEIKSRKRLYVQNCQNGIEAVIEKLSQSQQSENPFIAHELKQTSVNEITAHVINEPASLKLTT

[2] = molecular target: T2, Pot1-DBD_T62A (Schizosaccharomyces pombe, UniProt O13988 1-389, T62A)
T2 sequence: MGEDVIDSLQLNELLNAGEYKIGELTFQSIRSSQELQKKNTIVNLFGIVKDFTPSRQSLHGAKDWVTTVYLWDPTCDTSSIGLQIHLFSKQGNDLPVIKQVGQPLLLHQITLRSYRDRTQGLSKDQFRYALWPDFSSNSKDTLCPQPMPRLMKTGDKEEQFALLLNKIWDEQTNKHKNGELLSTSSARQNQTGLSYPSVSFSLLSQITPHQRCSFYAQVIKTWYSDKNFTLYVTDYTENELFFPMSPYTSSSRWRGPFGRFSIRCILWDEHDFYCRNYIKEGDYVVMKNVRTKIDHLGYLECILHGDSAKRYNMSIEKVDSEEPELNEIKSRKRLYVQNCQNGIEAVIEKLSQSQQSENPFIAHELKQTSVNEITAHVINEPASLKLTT

[3] = molecular target: T3, Pot1-DBD_Y115A (Schizosaccharomyces pombe, UniProt O13988 1-389, Y115A)
T3 sequence: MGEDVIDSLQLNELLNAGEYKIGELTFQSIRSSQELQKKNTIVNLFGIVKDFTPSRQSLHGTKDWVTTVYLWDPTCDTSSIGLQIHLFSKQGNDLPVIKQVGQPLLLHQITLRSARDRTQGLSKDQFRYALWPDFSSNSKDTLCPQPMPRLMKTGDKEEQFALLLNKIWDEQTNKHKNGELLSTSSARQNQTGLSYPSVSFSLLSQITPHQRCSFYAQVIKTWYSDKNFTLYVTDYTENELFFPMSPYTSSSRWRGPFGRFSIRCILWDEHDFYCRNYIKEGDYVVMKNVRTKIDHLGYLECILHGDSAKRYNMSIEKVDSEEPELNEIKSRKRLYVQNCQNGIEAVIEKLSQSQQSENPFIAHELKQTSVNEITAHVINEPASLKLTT

GGTTACGGTTAC (ssDNA) [12mer] gave a Kd [1] of 10 ± 1 nM, a Kd [2] of 90 ± 3 nM and a Kd [3] of 80 ± 4 nM.
